Usually Kd stands for the constant that tells how readily two partners part at equilibrium.

To fix the notation:
B1: FAB-COLL-II: anti-digoxigenin antibody Fab conjugated to anti-collagen II antibody scFv II (bispecific antibody)
heavy: QVQLVESGGGLVKPGGSLRLSCAASGFTFSDYAMSWIRQAPGKGLEWVSSINIGATYIYYADSVKGRFTISRDNAKNSLYLQMNSLRAEDTAVYYCARPGSPYEYDKAYYSMAYWGQGTTVTVSSASTKGPSVFPLAPSSKSTSGGTAALGCLVKDYFPEPVTVSWNSGALTSGVHTFPAVLQSSGLYSLSSVVTVPSSSLGTQTYICNVNHKPSNTKVDKKVEPKSCGGGGSGGGGSEIVLTQSPATLSLSPGERATLSCRASQSVDDWLAWYQQKPGQAPRLLIYDASNRATGIPARFSGSGSGTDFTLTISSLEPEDFAVYYCQQGDTAPITFGQGTKVEIKGGGGSGGGGSGGGGSGGGGSQVQLVQSGAEVKKPGSSVKVSCKASGGTFSSYAISWVRQAPGQGLEWMGGIIPIFGTANYAQKFQGRVTITADESTSTAYMELSSLRSEDTAVYYCARNIVGDYLLDYWGQGTLVTVSS
light: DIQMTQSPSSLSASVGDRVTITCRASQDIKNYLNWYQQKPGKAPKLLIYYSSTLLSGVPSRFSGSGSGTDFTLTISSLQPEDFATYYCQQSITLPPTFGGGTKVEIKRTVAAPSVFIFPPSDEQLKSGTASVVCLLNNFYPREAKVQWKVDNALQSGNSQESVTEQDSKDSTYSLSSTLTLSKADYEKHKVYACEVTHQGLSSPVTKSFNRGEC
notes: Fab-scFv fusion; also called FAB-COLL-II (8 nM)
B2: FAB-COLL-III: anti-digoxigenin antibody Fab conjugated to anti-collagen II antibody scFv III (bispecific antibody)
heavy: QVQLVESGGGLVKPGGSLRLSCAASGFTFSDYAMSWIRQAPGKGLEWVSSINIGATYIYYADSVKGRFTISRDNAKNSLYLQMNSLRAEDTAVYYCARPGSPYEYDKAYYSMAYWGQGTTVTVSSASTKGPSVFPLAPSSKSTSGGTAALGCLVKDYFPEPVTVSWNSGALTSGVHTFPAVLQSSGLYSLSSVVTVPSSSLGTQTYICNVNHKPSNTKVDKKVEPKSCGGGGSGGGGSEIVLTQSPATLSLSPGERATLSCRASQSVADWLAWYQQKPGQAPRLLIYDASNRATGIPARFSGSGSGTDFTLTISSLEPEDFAVYYCQQYDGWPITFGQGTKVEIKGGGGSGGGGSGGGGSGGGGSQVQLVQSGAEVKKPGSSVKVSCKASGGTFSSYAISWVRQAPGQGLEWMGGIIPIFGTANYAQKFQGRVTITADESTSTAYMELSSLRSEDTAVYYCARHLYYMLDYWGQGTLVTVSS
light: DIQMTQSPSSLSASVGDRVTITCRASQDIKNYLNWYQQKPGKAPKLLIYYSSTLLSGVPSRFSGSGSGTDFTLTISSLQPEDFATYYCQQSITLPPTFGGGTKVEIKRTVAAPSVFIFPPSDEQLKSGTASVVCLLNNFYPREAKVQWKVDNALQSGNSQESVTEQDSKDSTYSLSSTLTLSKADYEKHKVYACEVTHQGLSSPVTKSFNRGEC
notes: Fab-scFv fusion; also called FAB-COLL-III (8 nM)
B3: FAB-COLL-I: anti-digoxigenin antibody Fab conjugated to anti-collagen II antibody scFv I (bispecific antibody)
heavy: QVQLVESGGGLVKPGGSLRLSCAASGFTFSDYAMSWIRQAPGKGLEWVSSINIGATYIYYADSVKGRFTISRDNAKNSLYLQMNSLRAEDTAVYYCARPGSPYEYDKAYYSMAYWGQGTTVTVSSASTKGPSVFPLAPSSKSTSGGTAALGCLVKDYFPEPVTVSWNSGALTSGVHTFPAVLQSSGLYSLSSVVTVPSSSLGTQTYICNVNHKPSNTKVDKKVEPKSCGGGGSGGGGSEIVLTQSPATLSLSPGERATLSCRASQSVRDFLAWYQQKPGQAPRLLIYGASNRATGIPARFSGSGSGTDFTLTISSLEPEDFAVYYCQQRGSAPLTFGQGTKVEIKGGGGSGGGGSGGGGSGGGGSQVQLVQSGAEVKKPGSSVKVSCKASGGTFSSYAISWVRQAPGQGLEWMGGIIPIFGTANYAQKFQGRVTITADESTSTAYMELSSLRSEDTAVYYCARDPNGNIVLSEYFDYWGQGTLVTVSS
light: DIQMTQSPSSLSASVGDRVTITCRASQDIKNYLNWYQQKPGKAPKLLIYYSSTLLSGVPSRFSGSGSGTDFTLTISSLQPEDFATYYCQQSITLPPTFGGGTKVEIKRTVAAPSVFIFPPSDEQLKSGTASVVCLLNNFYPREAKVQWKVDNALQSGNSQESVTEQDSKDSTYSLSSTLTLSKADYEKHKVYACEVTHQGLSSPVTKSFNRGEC
notes: Fab-scFv fusion; also called FAB-COLL-I (2 nM)

In one experiment the target is collagen (ECM compound added to PBS in the FCS diffusion test solution). As to the kind of experiment: cell-based or functional assay.
As for B1, the “diffusion rate FCS (increase in PBS comprising ECM compound at equimolar concentration compared to PBS alone)” value turned out to be 260%.

With B2, the “diffusion rate FCS (increase in PBS comprising ECM compound at equimolar concentration compared to PBS alone)” value was 40%.

Consider B3, for which the “diffusion rate FCS (increase in PBS comprising ECM compound at equimolar concentration compared to PBS alone)” value came out at 180%.

The next experiment deals with T1, human Collagen type II (Millipore CC052) (human, UniProt P02458 182-1241, limits assumed).
T1 construct: Bought material, immobilised by amine coupling on the sensor chip; also called human collagen II
T1 sequence (P02458 182-1241 limits assumed): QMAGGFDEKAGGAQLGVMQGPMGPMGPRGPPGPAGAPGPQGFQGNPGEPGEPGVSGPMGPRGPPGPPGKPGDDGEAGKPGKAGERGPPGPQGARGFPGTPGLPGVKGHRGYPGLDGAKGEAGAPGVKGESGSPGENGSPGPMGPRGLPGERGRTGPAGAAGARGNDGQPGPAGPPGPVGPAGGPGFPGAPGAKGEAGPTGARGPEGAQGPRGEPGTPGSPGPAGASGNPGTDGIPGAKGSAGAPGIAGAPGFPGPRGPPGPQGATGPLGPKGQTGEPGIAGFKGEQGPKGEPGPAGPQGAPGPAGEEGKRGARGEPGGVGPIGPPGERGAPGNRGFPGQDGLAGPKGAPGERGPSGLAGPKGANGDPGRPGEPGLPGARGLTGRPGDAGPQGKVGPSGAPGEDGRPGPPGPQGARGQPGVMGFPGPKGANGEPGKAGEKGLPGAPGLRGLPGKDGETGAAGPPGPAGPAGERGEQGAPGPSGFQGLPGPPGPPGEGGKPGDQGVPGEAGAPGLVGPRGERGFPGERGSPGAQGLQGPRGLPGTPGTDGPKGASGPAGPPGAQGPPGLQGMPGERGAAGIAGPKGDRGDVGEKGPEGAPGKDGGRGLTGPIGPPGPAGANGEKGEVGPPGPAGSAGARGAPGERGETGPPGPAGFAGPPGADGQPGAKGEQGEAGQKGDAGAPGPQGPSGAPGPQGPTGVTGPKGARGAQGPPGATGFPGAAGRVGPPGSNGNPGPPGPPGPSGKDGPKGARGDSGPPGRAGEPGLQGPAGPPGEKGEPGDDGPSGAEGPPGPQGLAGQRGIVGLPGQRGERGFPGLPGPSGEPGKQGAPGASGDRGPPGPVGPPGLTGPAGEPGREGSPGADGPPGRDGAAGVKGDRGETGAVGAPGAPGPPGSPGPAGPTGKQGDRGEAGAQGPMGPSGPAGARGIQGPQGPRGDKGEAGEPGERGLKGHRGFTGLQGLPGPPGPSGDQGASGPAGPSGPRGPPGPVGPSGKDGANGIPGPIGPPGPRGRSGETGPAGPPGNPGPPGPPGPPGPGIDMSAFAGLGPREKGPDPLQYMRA
Put plainly: SPR (BIAcore T200), collagen II amine-coupled on chip, construct injected 1.23-900 nM, 25 C, 1:1 Langmuir fit. The method, then:
(§1) Binding kinetics of anti-collagen antibodies to human Collage type II (Millipore CC052) and porcine Collagen type II (USBiological C7510-31) was investigated by surface plasmon resonance using a BIAcore T200 instrument (GE Healthcare). All experiments were performed at 25° C. using HBS-P (10 mM […], 140 mM NaCl, 0.05% Tween 20 pH 7.4) as running and dilution buffer. Collagen type II was immobilized on a Series S CMS Sensor Chip (GE Healthcare) using standard amine coupling chemistry. Anti-Collagen antibodies were injected for 180 s with concentrations from 1.23 up to 900 nM (1:3 dilution series) onto the surface (association phase). The dissociation phase was monitored for 600 sec by washing with running buffer. The surface was regenerated by injecting 0.85% H₃PO₄ for 60 sec. Bulk refractive index differences were corrected by subtracting the response obtained from a mock surface. Blank injections were subtracted (double referencing). The derived curves were fitted to a 1:1 Langmuir binding model using the BIAevaluation software.
(Surface plasmon resonance follows binding to a sensor surface in real time, without labels.)
As for B1, binding was put at a Kd of 15 nM.

The molecule B2 yielded a Kd of 180 nM.

In the case of B3, the Kd worked out at 30 nM.

The target of another experiment is T2, porcine Collagen type II (USBiological C7510-31) (porcine).
T2 construct: Bought material, immobilised by amine coupling on the sensor chip; also called porcine collagen II
The experiment is described as above. The procedure:
as §1
For the molecule B1, the Kd is 50 nM.

Molecule B2 came in with a Kd of 342 nM.

B3 yielded a Kd of 56 nM. Against the preceding molecule, the Kd is about 6.1-fold lower.

The values above are taken from patent US20190225676A1 (Hoffmann-La Roche, published 2019).
